Measurements as given in PMC4678821.

Biological target: casposon-encoded Aciduliprofundum boonei T469 Cas1 (Aciduliprofundum boonei T469)
Assay: SEC; Superdex 200 16/60, step of the purification after TEV cleavage; data not shown

## casposon-encoded Aciduliprofundum boonei T469 Cas1 (enzyme)
  stoichiometry N: 2
